According to article PMC11476177:

T1: His-TonEBP sNT (UniProt O94916 1-548)
T1 sequence: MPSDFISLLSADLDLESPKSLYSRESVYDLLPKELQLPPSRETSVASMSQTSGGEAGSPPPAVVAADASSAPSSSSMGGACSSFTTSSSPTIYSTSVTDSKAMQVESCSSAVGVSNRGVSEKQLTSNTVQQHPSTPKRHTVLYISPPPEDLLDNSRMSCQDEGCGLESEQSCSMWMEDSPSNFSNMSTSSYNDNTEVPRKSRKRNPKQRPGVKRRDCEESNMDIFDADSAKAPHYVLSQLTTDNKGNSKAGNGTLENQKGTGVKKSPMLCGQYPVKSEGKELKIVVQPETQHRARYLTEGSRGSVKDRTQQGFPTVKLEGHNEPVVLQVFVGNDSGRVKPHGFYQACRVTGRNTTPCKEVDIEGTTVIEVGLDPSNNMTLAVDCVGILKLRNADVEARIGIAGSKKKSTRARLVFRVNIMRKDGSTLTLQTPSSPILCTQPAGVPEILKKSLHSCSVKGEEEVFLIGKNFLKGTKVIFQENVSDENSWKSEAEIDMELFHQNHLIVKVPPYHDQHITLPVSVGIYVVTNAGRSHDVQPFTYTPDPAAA


How the values were obtained:
[1] = target: His-p65 (UniProt Q04206); assay: SPR; conditions: SPR: 10 mM HEPES, 150 mM NaCl, 3 mM EDTA, 0.05% P20, pH not stated, room temp, EMSA: 10 mM Tris-HCl pH 7.5, 10 mM NaCl, 40 mM KCl, 1 mM MgCl2, 1 mM EDTA
[2] = target: T1, His-TonEBP sNT; assay: SPR; SPR: 10 mM HEPES, 150 mM NaCl, 3 mM EDTA, 0.05% P20, pH not stated, room temp; EMSA: 10 mM Tris-HCl pH 7.5, 10 mM NaCl, 40 mM KCl, 1 mM MgCl2, 1 mM EDTA, 1 mM DTT, 50 ug/mL BSA, 100 nM probe, 25 min room temp, 0.8% agarose; conditions: protein: recombinant; tags: N-terminal His; chain copies: 2; label: biotin (SPR), 5' end of strand 1 as printed; text says dsDNA, only one strand given

Chain of His-p65 (Q04206 whole entry): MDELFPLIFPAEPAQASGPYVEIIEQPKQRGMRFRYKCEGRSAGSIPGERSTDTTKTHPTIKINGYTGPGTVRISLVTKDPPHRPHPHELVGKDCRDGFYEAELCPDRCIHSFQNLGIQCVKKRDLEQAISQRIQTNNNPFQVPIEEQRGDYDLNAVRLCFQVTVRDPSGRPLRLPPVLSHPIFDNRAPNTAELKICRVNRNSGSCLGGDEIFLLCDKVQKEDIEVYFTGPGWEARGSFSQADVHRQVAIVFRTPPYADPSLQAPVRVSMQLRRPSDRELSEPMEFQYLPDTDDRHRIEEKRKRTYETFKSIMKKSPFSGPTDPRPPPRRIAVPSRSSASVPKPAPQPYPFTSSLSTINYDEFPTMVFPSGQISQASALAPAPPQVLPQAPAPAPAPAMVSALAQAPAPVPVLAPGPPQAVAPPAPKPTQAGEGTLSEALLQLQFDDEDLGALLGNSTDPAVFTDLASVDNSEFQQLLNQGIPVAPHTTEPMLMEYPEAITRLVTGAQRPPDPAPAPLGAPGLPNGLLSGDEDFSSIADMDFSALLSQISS

Molecule | Kd [1] | Kd [2]
AATGTAAGTGGGAAATTCCTCTGAATA (double strand) [Probe p65] | 0.0352 µM | 
ATAGGAAAACTGAAAGGGAGAAGTGAAAGTGGGAAATTCC (double strand) [Probe IRF3/p65] | 0.0115 µM | 
Probe IRF3/p65 (dsDNA) DNA 1: ATAGGAAAACTGAAAGGGAGAAGTGAAAGTGGGAAATTCC DNA 2: GGAATTTCCCACTTTCACTTCTCCCTTTCAGTTTTCCTAT |  | 0.0313 µM
Probe p65 (dsDNA) DNA 1: AATGTAAGTGGGAAATTCCTCTGAATA DNA 2: TATTCAGAGGAATTTCCCACTTACATT |  | 0.0847 µM
